Results: patent US20030211470A1

What was measured:
[1] = target: recombinant gp120 from the primary isolate HIV-1JR-FL (HIV-1 JR-FL) (UniProt P20871); experiment: modified ELISA; gp120 captured on plate, CD4-IgG2 titrated, 1 h at 37 C, 50% of maximal binding
[2] = target: recombinant gp120 from the laboratory-adapted strain HIV-1LAI (HIV-1 LAI) (UniProt P03377); experiment: as above
[3] = target: HIV-1IIIB gp120/gp41 stably expressed on CHO cells (HIV-1 IIIB); experiment: cell-based or functional assay

Row | Substance | EC50 [1] | EC50 [2] | IC50 (nM), syncytium inhibition [3] | IC50 (µg/ml), syncytium inhibition [3] | Relative Potency (mass), relative to sCD4 [3] | Relative Potency (molarity), relative to sCD4 [3]
1 | CD4-IgG2 chimeric heterotetramer (Fc fusion) | 0.64 nM | 1.25 nM | 9 nM | 1.81 µg/mL | 5.1 fold | 22.2 fold
2 | CD4-gamma2 chimeric heavy chain homodimer (Fc fusion) | – | – | 40 nM | 4.03 µg/mL | – | –
